Measurements published in patent US20150203577A1 (Chugai, published 2015).
Residue numbers refer to the chain shown, from its start. Where two headings read alike, the source gives them in different places.

T1: mouse FcγRII extracellular domain, C-terminal His tag (mouse, UniProt P08101 30-210)
T1 construct: Whole entry named; also called mFcγRII; mFcgRII
T1 sequence: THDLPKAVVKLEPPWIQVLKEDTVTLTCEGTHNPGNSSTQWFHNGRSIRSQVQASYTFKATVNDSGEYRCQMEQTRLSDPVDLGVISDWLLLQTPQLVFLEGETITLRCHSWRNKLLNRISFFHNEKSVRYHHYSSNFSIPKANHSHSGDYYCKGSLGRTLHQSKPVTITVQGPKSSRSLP

T2: mouse FcγRIII extracellular domain, C-terminal His tag (mouse, UniProt P08508 31-215)
T2 construct: Whole entry named; also called mFcγRIII; mFcgRIII
T2 chain: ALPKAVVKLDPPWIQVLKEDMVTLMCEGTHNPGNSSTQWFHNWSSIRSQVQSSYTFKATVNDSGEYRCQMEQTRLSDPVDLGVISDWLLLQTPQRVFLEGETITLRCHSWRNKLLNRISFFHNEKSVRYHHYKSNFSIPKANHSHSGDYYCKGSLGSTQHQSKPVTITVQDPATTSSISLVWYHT

B1: H237-MB147/MRAL-k0 (antibody, mouse IgG1, kappa)
heavy: QVQLQESGPGLVKPSETLSLTCAVSGHSISHDHAWSWVRQPPGEGLEWIGFISYSGITNYNPSLQGRVTISRDNSKNTLYLQMNSLRAEDTAVYYCARSLARTTAMDYWGEGTLVTVSSAKTTPPSVYPLAPGSAAQTNSMVTLGCLVKGYFPEPVTVTWNSGSLSSGVHTFPAVLQSDLYTLSSSVTVPSSTWPSETVTCNVAHPASSTKVDKKIVPRDCGCKPCICTVPEVSSVEIFPPKPKDVLTITLTPKVTCVVVDISKDDPEVQFSWFVDDVEVHTAQTQPREEQFNSTFRSVSELPIMHQDWLNGKEFKCRVNSAAFPAPIEKTISKTKGRPKAPQVYTIPPPKEQMAKDKVSLTCMITDFFPEDITVEWQWNGQPAENYKNTQPIMDTDGSYFVYSKLNVQKSNWEAGNTFTCSVLHEGLHNHHTEKSLSHSPGK
light: not shown
notes: copies: 2 + 2
B2: H237-MB723/MRAL-k0 (antibody, mouse IgG1, kappa)
heavy: B1 heavy with T229E, V230D, P231Y, V233E, S234E, S235D, E237F
light: not shown
notes: copies: 2 + 2
B3: H237-MB868/MRAL-k0 (antibody, mouse IgG1, kappa)
heavy: B1 heavy with T229E, V230P, P231N, S234E, S235I, E237F, K264D, N320D, A322D, A323G
light: not shown
notes: copies: 2 + 2
B4: H237-MB875/MRAL-k0 (antibody, mouse IgG1, kappa)
heavy: QVQLQESGPGLVKPSETLSLTCAVSGHSISHDHAWSWVRQPPGEGLEWIGFISYSGITNYNPSLQGRVTISRDNSKNTLYLQMNSLRAEDTAVYYCARSLARTTAMDYWGEGTLVTVSSAKTTPPSVYPLAPGSAAQTNSMVTLGCLVKGYFPEPVTVTWNSGSLSSGVHTFPAVLQSDLYTLSSSVTVPSSTWPSETVTCNVAHPASSTKVDKKIVPRDCGCKPCICEPNEVEIVFIFPPKPKDVLTITLTPKVTCVVVDISDDDPEVQFSWFVDDVEVHTAQTQPREELFNSTFRSVSELPIMHQDWLNGKEFKCRVDSDGFPAPIEKTISKTKGRPKAPQVYTIPPPKEQMAKDKVSLTCMITDFFPEDITVEWQWNGQPAENYKNTQPIMDTDGSYFVYSKLNVQKSNWEAGNTFTCSVLHEGLHNHHTEKSLSHSPGK
light: not shown
notes: copies: 2 + 2
B5: H237-MB876/MRAL-k0 (antibody, mouse IgG1, kappa)
heavy: B4 heavy with D320N, E329Y
light: not shown
notes: copies: 2 + 2
B6: H237-MB877/MRAL-k0 (antibody, mouse IgG1, kappa)
heavy: B4 heavy with L291Q, K330R
light: not shown
notes: copies: 2 + 2
B7: H237-MB727/MRAL-k0 (antibody, mouse IgG1, kappa)
heavy: B1 heavy with T229E, V230P, P231A, V233E, S234E, S235D, E237F
light: not shown
notes: copies: 2 + 2
B8: H237-MB722/MRAL-k0 (antibody, mouse IgG1, kappa)
heavy: B1 heavy with T229E, V230A, P231Y, V233E, S234E, S235D, E237F
light: not shown
notes: copies: 2 + 2
B9: H237-MB866/MRAL-k0 (antibody, mouse IgG1, kappa)
heavy: B4 heavy with D264K, L291Q, D320N
light: not shown
notes: copies: 2 + 2
B10: H237-MB208/MRAL-k0 (antibody, mouse IgG1, kappa)
heavy: B1 heavy with E237F, S263M
light: not shown
notes: copies: 2 + 2
B11: H237-MB871/MRAL-k0 (antibody, mouse IgG1, kappa)
heavy: B4 heavy with D320N
light: not shown
notes: copies: 2 + 2
B12: H237-MB730/MRAL-k0 (antibody, mouse IgG1, kappa)
heavy: B1 heavy with T229Q, V230P, P231N, V233E, S234E, S235D, E237F
light: not shown
notes: copies: 2 + 2
B13: H237-MB870/MRAL-k0 (antibody, mouse IgG1, kappa)
heavy: B4 heavy with L291Q, D320N, K330R
light: not shown
notes: copies: 2 + 2
B14: H237-MB867/MRAL-k0 (antibody, mouse IgG1, kappa)
heavy: B4 heavy with L291Q, D320N
light: not shown
notes: copies: 2 + 2
B15: H237-MB258/MRAL-k0 (antibody, mouse IgG1, kappa)
heavy: B1 heavy with E237F, S294H
light: not shown
notes: copies: 2 + 2
B16: H237-MB729/MRAL-k0 (antibody, mouse IgG1, kappa)
heavy: B4 heavy with V233E, I235D, D264K, L291Q, D320N, D322A, G323A
light: not shown
notes: copies: 2 + 2
B17: H237-MB724/MRAL-k0 (antibody, mouse IgG1, kappa)
heavy: B1 heavy with T229E, V230N, P231Y, V233E, S234E, S235D, E237F
light: not shown
notes: copies: 2 + 2
B18: H237-MB159/MRAL-k0 (antibody, mouse IgG1, kappa)
heavy: B1 heavy with E237T
light: not shown
notes: copies: 2 + 2
B19: H237-MB725/MRAL-k0 (antibody, mouse IgG1, kappa)
heavy: B1 heavy with T229E, V230T, P231Y, V233E, S234E, S235D, E237F
light: not shown
notes: copies: 2 + 2
B20: H237-MB732/MRAL-k0 (antibody, mouse IgG1, kappa)
heavy: B4 heavy with V233E, I235L, D264K, L291Q, D320N, D322A, G323A
light: not shown
notes: copies: 2 + 2
B21: H237-MB869/MRAL-k0 (antibody, mouse IgG1, kappa)
heavy: B4 heavy with L291Q, D320N, E329Y
light: not shown
notes: copies: 2 + 2
B22: H237-MB726/MRAL-k0 (antibody, mouse IgG1, kappa)
heavy: B1 heavy with T229E, P231Y, V233E, S234E, S235D, E237F
light: not shown
notes: copies: 2 + 2
B23: H237-MB731/MRAL-k0 (antibody, mouse IgG1, kappa)
heavy: B1 heavy with T229E, V230P, P231A, V233E, S234E, S235L, E237F
light: not shown
notes: copies: 2 + 2

How the values were obtained:
[1] = molecular target: T1, mouse FcγRII extracellular domain, …; assay: SPR (Biacore T200); KD of H237-mIgG1/MRAL-k0 / KD of variant
[2] = molecular target: T2, mouse FcγRIII extracellular domain, …; assay: as above
[3] = molecular target: T1, mouse FcγRII extracellular domain, …; assay: as above; remark: listed apart in the source
Source text: (§1) The antibody H chain variable region used was the variable region H237 (SEQ ID NO: 1) of the H chain VH3-IgG1 of the anti-IL-6 receptor antibody Fv4-IgG1 described in WO2009/125825. The antibody L chain commonly used was the L chain MRAL-k0 (SEQ ID NO: 2) of the anti-IL-6 receptor antibody tocilizumab. The aforementioned 11 variants were used as templates to introduce the alteration. These variants were expressed and purified by the method of Reference Example 1 and evaluated for their binding to mFcγRII and mFcγRIII by the method of Reference Example 2 using Biacore T200.
(§2) Each altered antibody was analyzed for its interaction with each Fcγ receptor prepared above using Biacore T100 (GE Healthcare Japan Corp.), Biacore T200 (GE Healthcare Japan Corp.), Biacore A100, or Biacore 4000. The running buffer used was HBS-EP+ (GE Healthcare Japan Corp.). The assay temperature was set to 25° C. The sensor chips used were chips prepared by immobilizing Protein L (ACTIGEN or BioVision) onto Series S Sensor Chip CM5 (GE Healthcare Japan Corp.) or Series S Sensor Chip CM4 (GE Healthcare Japan Corp.) by the amine coupling method.
(§3) In order to calculate the KD value of each altered antibody for FcγR, kinetic analysis was conducted according to the following method: first, the antibody of interest was captured onto any of these chips and allowed to interact with mFcγR diluted with a running buffer. For the obtained sensorgram, the assay results were globally fit into the 1:1 Langmuir binding model using Biacore Evaluation Software to calculate an association rate constant ka (L/mol/s) and a dissociation rate constant kd (1/s). From these values, the dissociation constant KD (mol/L) was calculated.

[4] = molecular target: T2, mouse FcγRIII extracellular domain, …; assay: as above
Source text: as §1, §2, §3

[5] = molecular target: T1, mouse FcγRII extracellular domain, …; assay: SPR (Biacore T200); KD of H237-MB716/MRAL-k0 / KD of variant
Source text: as §1, with “H237-MB716/MRAL-k0 was” for “The aforementioned 11 variants were”, “a template” for “templates”, “alterations.” for “alteration.”
as §2

[6] = molecular target: T2, mouse FcγRIII extracellular domain, …; assay: as above
Source text: as §1, with “H237-MB716/MRAL-k0 was” for “The aforementioned 11 variants were”, “a template” for “templates”, “alterations.” for “alteration.”
as §2

[7] = molecular target: T1, mouse FcγRII extracellular domain, …; assay: SPR (Biacore T200); KD of H237-mIgG1/MRAL-k0 / KD of variant; remark: listed apart in the source
Source text: as §1, with “H237-MB716/MRAL-k0 was” for “The aforementioned 11 variants were”, “a template” for “templates”, “alterations.” for “alteration.”
as §2

[8] = molecular target: T2, mouse FcγRIII extracellular domain, …; assay: as above
Source text: as §1, with “H237-MB716/MRAL-k0 was” for “The aforementioned 11 variants were”, “a template” for “templates”, “alterations.” for “alteration.”
as §2

Binder	relative mFcγRII-binding activity (mIgG1 = 1) [3] [fold]	relative mFcγRIII-binding activity (mIgG1 = 1) [4] [fold]	relative mFcγRII-binding activity (MB716 = 1) [5] [fold]	relative mFcγRIII-binding activity (MB716 = 1) [6] [fold]	relative mFcγRII-binding activity (mIgG1 = 1) [7] [fold]	relative mFcγRIII-binding activity (mIgG1 = 1) [8] [fold]	other results
B1	–	–	–	–	–	–	relative mFcγRII-binding activity (mIgG1 = 1) [1]: 0.95 fold; relative mFcγRIII-binding activity (mIgG1 = 1) [2]: 0.36 fold
B2	14.1	0.72	–	–	–	–	–
B3	–	–	8.4	14.4	36.6	0.86	–
B4	–	–	16.8	32.3	72.8	1.92	–
B5	–	–	13.5	24.9	58.7	1.48	–
B6	–	–	12.7	24.4	55.3	1.45	–
B7	11.7	0.66	–	–	–	–	–
B8	33.3	1.35	–	–	–	–	–
B9	–	–	3	3.02	13	0.18	–
B10	–	–	–	–	–	–	relative mFcγRII-binding activity (mIgG1 = 1) [1]: 0.4 fold; relative mFcγRIII-binding activity (mIgG1 = 1) [2]: 0.26 fold
B11	–	–	14.2	28.2	61.8	1.67	–
B12	7.24	0.43	–	–	–	–	–
B13	–	–	8.9	17.6	38.6	1.05	–
B14	–	–	8.1	14.3	35.2	0.85	–
B15	–	–	–	–	–	–	relative mFcγRII-binding activity (mIgG1 = 1) [1]: 0.37 fold; relative mFcγRIII-binding activity (mIgG1 = 1) [2]: 0.32 fold
B16	10.4	0.53	–	–	–	–	–
B17	20.8	1.19	–	–	–	–	–
B18	–	–	–	–	–	–	relative mFcγRII-binding activity (mIgG1 = 1) [1]: 0.37 fold; relative mFcγRIII-binding activity (mIgG1 = 1) [2]: 0.28 fold
B19	24.3	1.39	–	–	–	–	–
B20	0.84	0.03	–	–	–	–	–
B21	–	–	9.4	15.8	41	0.94	–
B22	35.7	2.08	–	–	–	–	–
B23	7.13	0.03	–	–	–	–	–
